In data set [1] the target is Mycobacterium tuberculosis RNA polymerase core (Mycobacterium tuberculosis, UniProt P9WGZ1;P9WGY9;P9WGY7). In words: fluorescence polarisation.
The target in data set [2] is Rv1222 G133C (Fe-BABE);E. coli RNAP-σ70 holoenzyme (Mycobacterium tuberculosis …, UniProt L0T905;P0A7Z4;P0A8V2;P0A8T7;P0A800;P00579 1-154;1-329;1-1342;1-1407;2-91;1-613, C70A;C73A;C109G;G133C|). In words: Fe-BABE footprinting.

One may read the Kd as the constant that tells how readily two partners part at equilibrium. A low value points to tighter binding.

B1: Rv1222ΔC, TMR labelled (domain or fragment)
chain: MADPGSVGHVFRRAFSWLPAQFASQSDAPVGAPRQFRSTEHLSIEAIAAFVDGELRMNAHLRAAHHLSLCAQCAAEVDDQSRARAALRDSHPIRIPSTLLGLLSEIPRCPPEGPSKGSSGGSSQGPPDGAAAGFGDRFADGDGG
modifications: TMR label
Molecule B1 had a Kd in data set [1] of 72 ± 26 nM.

B2: lacCONS15 promoter DNA (dsDNA)
DNA 1: CACCCCAGGCTTGACACTTTATGCTTCGGCTCGTATAATGTGTGGAATTGTGAGGAGAGGCGGATAACAATTTCACACAGG
DNA 2: CCTGTGTGAAATTGTTATCCGCCTCTCCTCACAATTCCACACATTATACGAGCCGAAGCATAAAGTGTCAAGCCTGGGGTG
With B2, the binding result in data set [2] is “binds”.

Values taken from publication PMC4499140 (Nucleic Acids Research, 2015).
